This passage reports Kd results from US20240033343A1.

Among the targets are AAAA (SARS-CoV-2; HIV) (UniProt P0DTC2); M1GGSGG (SARS-CoV-2) (UniProt P0DTC2); S1GGSGG (SARS-CoV-2) (UniProt P0DTC2); RAA (SARS-CoV-2; HIV) (UniProt P0DTC2); S1GSG (SARS-CoV-2) (UniProt P0DTC2); S2GSG (SARS-CoV-2) (UniProt P0DTC2); W1GGSG (SARS-CoV-2; HIV) (UniProt P0DTC2); S2GGSGG (SARS-CoV-2) (UniProt P0DTC2); W1GSG (SARS-CoV-2) (UniProt P0DTC2); W2GSG (SARS-CoV-2; HIV) (UniProt P0DTC2).

The target in experiment [1] is W2GGSGG (SARS-CoV-2; HIV) (UniProt P0DTC2).
The target of experiment [2] is SARS-CoV-2 Sclamp (SARS-CoV-2) (UniProt P0DTC2).

As to CR3022 (antibody), the Kd (commonly the free concentration of one partner at which half of the binding sites on the other are occupied at equilibrium, for simple one-to-one binding) was determined as 0.74 nM with AAAA (SARS-CoV-2; HIV); 0.57 nM with M1GGSGG (SARS-CoV-2); 1.09 nM in experiment [1]; 0.69 nM in the experiment with S1GGSGG (SARS-CoV-2); 0.91 nM in the experiment with RAA (SARS-CoV-2; HIV); 0.58 nM in experiment [2]. Further, the Kd with S1GSG (SARS-CoV-2) came to 1.02 nM; with S2GSG (SARS-CoV-2), 1.03 nM; with W1GGSG (SARS-CoV-2; HIV), 0.89 nM; with S2GGSGG (SARS-CoV-2) it was 1.18 nM; with W1GSG (SARS-CoV-2) it was 1.08 nM; with W2GSG (SARS-CoV-2; HIV), 2.06 nM.
